Assays:
[1] = system: rat neural stem cells from the adult lateral ventricle wall; experiment: Expansion of rat neural stem cell cultures, total cell counts at 7 days; format: cell-based; conditions: different concentrations, 7 days; FIG. 24, FIG. 25
Procedure: Neural stem cells were prepared according to the attached protocol. Cells were grown in serum-free medium, subcloned and used between passage 6 and 10. If not otherwise mentioned the experiments consisted of triplets for analysis and were independently repeated at least 3 times.
Basal Medium: Neurobasal medium (NB, Gibco BRL) & B27 supplement (Gibco BRL).
Growth Medium: NB, B27 supplement+20 ng/ml of FGF-2 (R&D Systems)+20 ng/ml EGF (R&D Systems)+2 μg/ml heparin (Sigma, Germany).
Cells were plated in Growth medium at 10.000 cells/ml and after 2 days switched to the experimental condition. Cells were kept under the experimental condition for 7 days.
Adult female Fischer-344 rats (3-4 months; Charles River, Germany) were killed via cervical dislocation, the brains of each rat were removed and stored at 4° C. in DPBS (PAN, Germany) with 4.5 g/L glucose (Merck, Germany) (DPBS/glu). Overlying meninges and blood vessels were removed. Ependymal zone including subependymal/subventricular zone form the lateral wall of the lateral ventricle were aseptically removed. […] Live cells were counted by trypan blue exclusion assay in a hemocytometer. […]
The culture medium containing floating neurospheres was collected in a 15 ml centrifuge tube and centrifuged at 800 rpm. […] An aliquot was counted by trypan blue exclusion assay in a hemocytometer to determine the amount of live and dead cells. […]

Healthy Rats = experiment: ICV infusion in healthy rats, BrdU / NeuN labelling; format: in vivo, rat
Procedure: Male rats (12 hours light/dark regime; feeding and drinking ad libitum; 5 animals in standard cage) were infused (Alzet minipumps) in the left lateral ventricle with human recombinant PDGF-BB for 7 days at a daily dose of 36 ng/day (8 animals/group). Human recombinant BDNF (brain derived neurotrophic factor) was used as a positive control (Pencea V et al., J. Neurosci Sep. 1 (2001), 21(17):6706-17). Bromodeoxyuridine (BrdU) was also included in the infusion vehicle (artificial cerebrospinal fluid) to enable measurement of proliferation by quantitation of BrdU incorporation in the DNA. Animals were sacrificed at 7 (proliferation) or 28 days (neurogenesis) after start of treatment and brains were dissected and prepared for sectioning and immunohistochemistry (Pencea V et al., J. Neurosci Sep. 1 (2001), 21(17):6706-17).
Proliferation was measured by BrdU incorporation and diaminobenzidine (DAB) staining of HRP conjugated secondary antibodies (FIG. 7). Cells were counted in a phase contrast microscope. Neural phenotype was assessed by staining for neuronal marker NeuN by immunocytochemistry using a fluorescence readout. The secondary antibodies were labeled with FITC or Alexa Fluor568. In double staining analyses designed to measure neurogenesis, BrdU and NeuN were quantitated by fluorescence (above) and counting of cells was done in a confocal microscope. For further experimental details, see Pencea V et al., J. Neurosci Sep. 1 (2001), 21(17):6706-17. A number of brain regions were analysed.

6-OHDA Lesioned Rats = experiment: i.c.v. infusion in 6-OHDA lesioned rats, BrdU / NeuN labelling; format: in vivo, rat; conditions: for numbers of BrdU labelled cells in the denervated striatum: compared to PBS infusion
Procedure: Animal handling and surgical procedures were carried out according to the ethical and regulatory permits set forth by Jordbruksverket and Lund University. Adult female Sprague-Dawley rats (B&K Universal AB) rats weighing 220-250 g, were housed in pairs with a 12 h light-dark cycle with free access to food and water. To lesion the substantia nigra, rats were fixed into a stereotaxic frame and 6-OHDA ([…] in 0.02% ascorbate saline, Sigma) was injected at a rate of 1 μl/min in 2 deposits of 2 and 2.5 μl into the right ascending mesostriatal forebrain bundle at the following coordinates: 4.4 mm caudal to bregma, 1.2 mm lateral to midline, 7.8 mm below dura; 4.0 mm caudal, 0.8 mm lateral, 8.0 mm below dura, respectively (Paxinos and Watson, 1998). Three weeks after 6-OHDA injections, the completeness of the lesion was assessed with the amphetamine-induced rotation test. D-methylamphetamine (2.5 mg, i.p.) was injected 5 min prior to placing the rat in an automated rotormeter bowl that measured the number of rotations over 90 min.
Before implantation, an Alzet Model 2002 osmotic minipump (200 μl; flow rate: 0.5 μl/h, 12 μl/day) was prefilled with 200 μl of compound solution (see below) and placed in a NaCl (0.9%) solution warmed in water bath (37° C.) 36 hrs before implantation. Rats were anesthetized with halothane in a mixture of nitrous oxide/oxygen (70:30) and maintained with 2-3% halothane. For implantation, rats were placed in a stereotaxic frame and the cannula of the Alzet Brain Infusion kit II was placed into the right lateral ventricle (coordinates: AP=−0.3 mm posterior bregma, L=1.5 mm lateral to satura sagittalis, 4.5 mm the dura; Paxinos and Watson, 1998), and secured to the skull with screws and dental cement. The minipump was then placed subcutaneously in the mid-scapular region. The scalp was treated with lidocaine gel before suturing. Twelve days after insertion, the rats were briefly anaesthetized with halothane in order to remove the pump. Removed pumps had the remaining solution volume and weight recorded.
The effects of infused PDGF-BB and BDNF following 6-OHDA lesions were investigated at 2 different time points: at 12 days or 5 weeks after minipump insertion. Rats receiving human PDGF-BB (order # 220-BB-050; 50 μg, R&D Systems) each had 36 ng/d of PDGF dissolved in 0.1 M PBS (3 μg/ml). Rats receiving human recombinant BDNF (order # 248-BD-025; 25 μg, R&D Systems) each had 12 ng/d of BDNF dissolved in 0.1 M PBS (1 μg/ml). BrdU was co-administered with the compound solution in the minipumps by dissolving it into the 0.1 M PBS medium. Control rats received only BrdU/PBS infusions.
Brain tissue was obtained by anesthetizing the rat and transcardially perfusing with 0.9% saline followed by 4% paraformaldehyde (PFA). Brains were stored PFA for 2 hours, then transferred to 20% sucrose PBS and sectioned coronally on a sledge microtome at 30 μm thickness. Free-floating sections were stored in Walter's antifreeze solution at 4° C. until staining.
Following blocking, incubation of monoclonal rat anti-BrdU antibody (Harlan Sera Lab, UK) in 2% blocking solution occurred at a dilution of 1:100 at 4° C. for 36 hrs. The sections were then incubated with biotin-horse-[…] antibody (1:200) (Vector, CA) in 2% blocking solution for 2 hr and visualized with DAB-NiCl Vectastain Elite kit. The procedure for doubling labeling of BrdU with NeuN or TH was similar, except that a monoclonal rat anti-BrdU antibody (1:100; Sigma, Sweden) was incubated either with a monoclonal mouse anti-NeuN antibody (1:100; Chemicon, USA) or with a monoclonal anti-TH antibody (1:1000; Pelfreeze) in the appropriate 2% blocking solution in the dark for 36 to 48 hrs. For immunofluorescent visualization, sections were incubation in secondary antibodies: Cy3-conjugated donkey anti-rat (1:200; Jackson ImmunoResearch, PA) for BrdU; a biotinylated horse anti-mouse antibody (1:200; BA2001, Vector, CA) for NeuN; and a FITC-conjugated goat anti-rat (1:200;) for TH. […]

Molecule	stimulation of proliferation of neural stem cell cultures [1]	Cell count (BrdU, proliferation) along the lateral ventricle wall (Healthy Rats; 7-day group, ICV infusion 7 days, 36 ng/day, mean of two sections, mean +/- sem)	number of proliferating cells in the subventricular zone (Healthy Rats; 28-day group)	neurogenesis in the striatum (Healthy Rats; 28-day group, in comparison to vehicle treated animals)	BrdU positive cells in the dentate gyrus, the CA1 and the alveus (Healthy Rats; 28-day group, in comparison to vehicle-treated animals)	BrdU positive cells in the striatum (Healthy Rats; 28-day group, cells counted in 300 × 300 μm squares)	absolute number of BrdU/NeuN double labelled cells in the striatum (6-OHDA Lesioned Rats; 5 weeks, FIG. 15)	numbers of BrdU labelled cells in the denervated striatum (6-OHDA Lesioned Rats; 12 days after infusion, PDGF 36 ng/d, BDNF 12 ng/d)	numbers of BrdU labelled cells in the lesioned substantia nigra (6-OHDA Lesioned Rats; 12 days after infusion, compared to PBS treatment)	BrdU cells in the striatum co-labelled with NeuN (proportion of newly generated neurons) (6-OHDA Lesioned Rats; Week 5, no statistically significant differences)	numbers of BrdU labelled cells in the denervated striatum (6-OHDA Lesioned Rats; at 5 weeks)
VEGF-A121: VEGF isoform that can only bind to the Flk-1 receptor (protein) APMAEGGGQNHHEVVKFMDVYQRSYCHPIETLVDIFQEYPDEIEYIFKPSCVPLMRCGGCCNDEGLECVPTEESNITMQIMRIKPHQGQHIGEMSFLQHNKCECRPKKDRARQEKCDKPRR	significant stimulation										
BDNF: Human recombinant BDNF (brain derived neurotrophic factor), used as a positive control (protein, UniProt P23560 19-247, looked up) Neurotrophic factor BDNF …: APMKEANIRGQGGLAYPGVRTHGTLESVNGPKAGSRGLTSLADTFEHVIEELLDEDQKVRPNEENNKDADLYTSRVMLSSQVPLEPPLLFLLEEYKNYLDAANMSMRVRRHSDPARRGELSVCDSISEWVTAADKKTAVDMSGGTVTVLEKVPVSKGQLKQYFYETKCNPMGYTKEGCRGIDKRHWNSQCRTTQSYVRALTMDSKKRIGWRFIRIDTSCVCTLTIKRGR		177 +/−15	slight effect	significantly increase neurogenesis	no significant effect	39.8 ± 7.3 (p < 0.01 to vehicle, ANOVA)	significantly more neurons	significantly elevated	significantly elevated	16.6%	significant increases
VEGF-A165: VEGF isoform that can bind to flk-1, flt-1 and neuropilin-1 (protein) APMAEGGGQNHHEVVKFMDVYQRSYCHPIETLVDIFQEYPDEIEYIFKPSCVPLMRCGGCCNDEGLECVPTEESNITMQIMRIKPHQGQHIGEMSFLQHNKCECRPKKDRARQENPCGPCSERRKHLFVQDPQTCKCSCKNTDSRCKARQLELNERTCRCDKPRR	significant stimulation										

— patent US7981863B2, “Treatment of Parkinson's disease with PDGF” (Neuronova AB, priority 2001, dated 2011)
